7 molecules from patent publication US20100260765A1 (AstraZeneca / MedImmune, published 2010) can be followed below.

Assay [1] has as its target KDR endogenously expressed on human umbilical vein endothelial cells (HUVEC) (human, UniProt P35968 20-1356). Briefly: cell-based or functional assay.
Assay [2] addresses T1, soluble KDR extracellular domain (ECD) (Calbiochem) (human, UniProt P35968 20-764).
T1 construct: extracellular domain; Bought protein; also called KDR-ECD; VEGF Receptor 2 D1-7, Cat. #676490
Briefly: High Antigen ELISA, KDR coat 500 ng/mL, supernatant 1:18,225. As for the experimental part:
(§1) ELISA plates were coated with a greater amount of KDR (at 500 ng/mL) in comparison with the Limited Antigen Quantitation assay described below. Sample containing antibody (Ab) was titrated on the KDR-coated ELISA plates and was incubated overnight at 4° C. to allow Ab binding to approach equilibrium. Titration of Ab in sample covered a dilution range of 1:25 to 1:18,225. A standard curve of KDR-specific antibody of known concentration was used to define the linear range of the assay. Data within the linear range were used to derive the relative concentration of KDR-specific Ab in each titrated sample. The high KDR concentration and the overnight incubation limited the effect of Ab affinity, allowing quantitation of the relative amount of KDR-specific Ab present in each sample.
A general note: An ELISA detects its analyte on a solid surface through an enzyme-linked reagent.

For assay [3], the target named is T1, soluble KDR extracellular domain (ECD) …. Briefly: High Antigen ELISA, KDR coat 500 ng/mL, supernatant 1:75. As to the method: as §1
For assay [4] the target is unchanged. The assay can be described thus: High Antigen ELISA, KDR coat 500 ng/mL, supernatant 1:25. As to the method: as §1
For assay [5] the target is unchanged. The assay can be described thus: High Antigen ELISA, KDR coat 500 ng/mL, supernatant 1:675. As for the experimental part: as §1
Assay [6] has the same target. The assay can be described thus: Limited Antigen ELISA, KDR coat 25 ng/mL, supernatant 1:25. As for the experimental part:
(§2) Samples containing one concentration of antibody (Ab) (1:25 dilution) were incubated overnight to allow Ab binding to approach equilibrium. The low antigen concentration limited the effect of antibody concentration, allowing ranking of the antibodies based on their relative affinity.

Assay [7] has the same target. Briefly: High Antigen ELISA, KDR coat 500 ng/mL, supernatant 1:225. As to the method:
as §1

The target is the same in assay [8]. The assay can be described thus: Limited Antigen ELISA, KDR coat 12.5 ng/mL, supernatant 1:25. As to the method:
as §2

Assay [9] has the same target. Briefly: High Antigen ELISA, KDR coat 500 ng/mL, supernatant 1:6075. As for the experimental part:
as §1

Assay [10] shares this target. The assay can be described thus: Limited Antigen ELISA, KDR coat 3.125 ng/mL, supernatant 1:25. As for the experimental part: as §2
The target is the same in assay [11]. The assay can be described thus: Limited Antigen ELISA, KDR coat 6.25 ng/mL, supernatant 1:25. As to the method:
as §2

Assay [12] has the same target. Briefly: Limited Antigen ELISA, KDR coat 50 ng/mL, supernatant 1:25. As to the method: as §2
Assay [13] has the same target. The assay can be described thus: High Antigen ELISA, KDR coat 500 ng/mL, supernatant 1:2025. As for the experimental part:
as §1

KDR endogenously expressed on human umbilical vein endothelial cells (HUVEC), sequence (P35968 20-1356): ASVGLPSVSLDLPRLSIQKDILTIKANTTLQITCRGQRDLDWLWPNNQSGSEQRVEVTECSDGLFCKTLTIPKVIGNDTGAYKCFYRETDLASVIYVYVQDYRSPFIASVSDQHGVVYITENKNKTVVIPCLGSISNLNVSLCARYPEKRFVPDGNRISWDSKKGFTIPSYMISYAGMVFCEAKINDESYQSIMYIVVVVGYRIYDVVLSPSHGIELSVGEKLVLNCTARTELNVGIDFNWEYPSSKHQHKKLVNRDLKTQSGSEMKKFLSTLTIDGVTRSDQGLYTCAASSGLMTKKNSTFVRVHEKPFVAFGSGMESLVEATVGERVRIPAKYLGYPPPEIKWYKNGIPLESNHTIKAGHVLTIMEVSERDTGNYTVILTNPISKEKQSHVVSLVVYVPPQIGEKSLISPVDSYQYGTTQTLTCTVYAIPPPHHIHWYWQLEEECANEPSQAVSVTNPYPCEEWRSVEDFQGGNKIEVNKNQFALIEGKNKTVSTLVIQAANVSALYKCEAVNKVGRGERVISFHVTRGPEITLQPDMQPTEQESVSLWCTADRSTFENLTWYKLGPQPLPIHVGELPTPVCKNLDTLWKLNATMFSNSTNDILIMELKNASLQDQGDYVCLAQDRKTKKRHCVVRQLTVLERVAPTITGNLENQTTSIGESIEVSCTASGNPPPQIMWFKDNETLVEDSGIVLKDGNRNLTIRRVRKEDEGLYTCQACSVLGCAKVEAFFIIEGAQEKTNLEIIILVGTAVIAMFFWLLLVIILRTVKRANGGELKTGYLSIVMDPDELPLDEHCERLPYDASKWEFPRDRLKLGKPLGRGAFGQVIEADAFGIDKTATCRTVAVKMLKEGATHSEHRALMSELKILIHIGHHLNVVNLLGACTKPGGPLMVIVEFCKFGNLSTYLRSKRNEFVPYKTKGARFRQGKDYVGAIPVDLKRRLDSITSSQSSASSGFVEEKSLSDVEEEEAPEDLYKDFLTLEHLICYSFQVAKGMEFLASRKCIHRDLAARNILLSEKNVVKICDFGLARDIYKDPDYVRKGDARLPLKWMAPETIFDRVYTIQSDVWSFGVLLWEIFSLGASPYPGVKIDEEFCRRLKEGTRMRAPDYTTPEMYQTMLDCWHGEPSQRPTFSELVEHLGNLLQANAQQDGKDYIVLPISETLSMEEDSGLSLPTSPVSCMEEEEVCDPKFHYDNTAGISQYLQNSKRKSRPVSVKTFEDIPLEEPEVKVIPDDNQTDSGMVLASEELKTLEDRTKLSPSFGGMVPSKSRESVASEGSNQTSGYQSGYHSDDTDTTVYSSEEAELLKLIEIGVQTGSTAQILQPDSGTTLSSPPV
T1 sequence (P35968 20-764): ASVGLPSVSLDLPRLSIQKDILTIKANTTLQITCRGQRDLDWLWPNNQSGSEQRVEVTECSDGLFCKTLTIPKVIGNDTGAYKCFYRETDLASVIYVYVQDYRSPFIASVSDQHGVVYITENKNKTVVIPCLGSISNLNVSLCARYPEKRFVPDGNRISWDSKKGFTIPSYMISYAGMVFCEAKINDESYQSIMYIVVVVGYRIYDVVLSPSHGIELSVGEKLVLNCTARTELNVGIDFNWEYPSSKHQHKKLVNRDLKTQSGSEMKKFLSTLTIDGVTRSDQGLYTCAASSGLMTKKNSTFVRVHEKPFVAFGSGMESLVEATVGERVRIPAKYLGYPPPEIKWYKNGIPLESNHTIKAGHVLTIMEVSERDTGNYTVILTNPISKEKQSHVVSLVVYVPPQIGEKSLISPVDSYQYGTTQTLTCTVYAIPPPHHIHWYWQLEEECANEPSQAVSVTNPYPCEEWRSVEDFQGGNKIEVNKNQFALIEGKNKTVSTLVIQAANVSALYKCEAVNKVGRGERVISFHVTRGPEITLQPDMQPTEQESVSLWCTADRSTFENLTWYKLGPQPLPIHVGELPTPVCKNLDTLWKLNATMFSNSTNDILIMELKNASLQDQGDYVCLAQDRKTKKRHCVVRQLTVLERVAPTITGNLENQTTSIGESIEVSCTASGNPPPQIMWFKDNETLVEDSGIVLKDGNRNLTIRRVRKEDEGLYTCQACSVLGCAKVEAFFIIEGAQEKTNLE

B1: 30A1 (antibody, V domains shown)
VH: QLQLQESGPGLVKPSETLSLTCTVSGGSISSPNYYWGWIRQPPGKGLEWIGTIYYSGNTFYNPSLKSRVTISVDTSKNQFSLKLSSVTAADTAVYYCATQQLVLYYFDFWGQGTLVTVSS
VL: EIVLTQSPGTLSLSPGKRAALSCRASQSISSSYLAWYQQKPGQAPRLLIYGASSRATGIPDRFNGSGSGTDFTLTISRLEPEDFAVYYCQQLGSSITFGQGTRLEIK
notes: Fully human mAb from XenoMouse hybridoma, tested as hybridoma supernatant
Regarding B1, the “VEGF-E-mediated Survival % Inhibition (Average)” value in [1] came out at 58%. For the same molecule, the “VEGF-E-mediated Survival % Inhibition (n = 1)” value in assay [1] came out at 58%. Besides, the “VEGF-E-mediated Survival % Inhibition (n = 2)” value in assay [1] came to 59%. In addition, the ELISA reading in [2] came to 1.11; in [3], 4.78; in [4] it was 4.52; in assay [5], 4.28; in assay [6], 0.87; in assay [7], 6. The ELISA reading in assay [8] was 0.5; in [9], 1.58; in assay [10] it was 0.15; in assay [11], 0.27; in [12] it was 1.77; in assay [13], 3.37.

B2: 27D10 (antibody, V domains shown)
VH: QLQLQESGPGLVKPSETLSLTCTVSGGSISSRSDYWGWIRQPPGKGLEWIGTIYYSGSTFYNPSLKSRVTISVDTSKNQFSLKLSSVTAADTAVYYCARQQLVLYYFDYWGQGTLVTVSS
VL: not shown
notes: as for B1
Take B2: in [1], the “VEGF-E-mediated Survival % Inhibition (Average)” value was found to be 57%. For the same molecule, the “VEGF-E-mediated Survival % Inhibition (n = 1)” value in assay [1] was found to be 50%. Moreover, in assay [1], the “VEGF-E-mediated Survival % Inhibition (n = 2)” value was determined as 64%. In addition, the ELISA reading in assay [2] was 0.41; in assay [3], 4.02; in [4] it was 4.09; in [5], 3.79; in [6], 0.54; in [7], 3.95. The ELISA reading in assay [8] was found to be 0.25; in assay [9], 0.89; in assay [10], 0.12; in assay [11] it was 0.14; in [12] it was 1.36; in assay [13] it was 1.87.

B3: 27A3 (antibody, V domains shown)
VH: QLQLQESGPGLVKPSETLSLTCTVSGGSISSRSDYWGWIRQPPGKGLEWIGTIYYSGDTYYNPSLKSRVTISVDTSKNQFSLKLSSVTAADTAVYYCARQQLVLYYFDYWGQGTLVTVSS
VL: EIVLTQSPGTLSLSPGERATLSCRASQSVSSSYLAWYQQKPGQAPRLLIYATSNRATGIPDRFSGSGSGTDFTLTISRLEPEDFAVYYCQQHGSSPPLTFGGGTKVEIK
notes: as for B1
Take B3: the “VEGF-E-mediated Survival % Inhibition (Average)” value in [1] came out at 58%. Moreover, in [1], the “VEGF-E-mediated Survival % Inhibition (n = 1)” value worked out at 63%. Further, the “VEGF-E-mediated Survival % Inhibition (n = 2)” value in [1] came to 52%. For the same molecule, the ELISA reading in assay [2] worked out at 0.4; in assay [3], 4.72; in assay [4], 4.79; in assay [5] it was 3.93; in assay [6], 1.26; in assay [7], 5.26. The ELISA reading amounted to 0.54 in assay [8]; 0.96 in assay [9]; 0.15 in assay [10]; 0.26 in assay [11]; 2.3 in assay [12]; 2.05 in assay [13].

B4: 24B3 (antibody, V domains shown)
VH: EVQLVESGGGLVKPGGSLRLSCAASGFTFSTYSMNWVRQAPGKGLEWVSFISGRSSYIYYADSVKGRFTISRDNAKNSLYLQMNSLRAEDTAVYYCSKDDWFEELWGQGTLVTVSS
VL: DIQMTQSPSSLSASVGDRVTITCRASQGIRSDLGWYQQKPGKAPKRLIYATSSLQSGVPSRFSGSGSGTEFTLTISSLQPEDFATYYCLQHNRYPWTFGQGTKVEIK
notes: as for B1
In the case of B4, the “VEGF-E-mediated Survival % Inhibition (Average)” value in [1] was determined as 66%. Also, in [1], the “VEGF-E-mediated Survival % Inhibition (n = 1)” value was determined as 65%. For the same molecule, the “VEGF-E-mediated Survival % Inhibition (n = 2)” value in [1] was 66%. In addition, the ELISA reading is 0.08 in assay [2]; 1.58 in [3]; 2.33 in assay [4]; 0.79 in [5]; 0.21 in [6]; 1.16 in assay [7]. In addition, the ELISA reading in assay [8] was 0.12; in assay [9], 0.13; in [10] it was 0.07; in assay [11], 0.08; in [12] it was 0.38; in [13] it was 0.31.

B5: 33B1 (antibody, V domains shown)
VH: EVQLVESGGGLVKPGGSLRLSCAASGFTFSSYTMNWVRQAPGKGLEWVSFIDSRSSYIYYADSVKGRFTISRDNAKNSLYLQMNSLRAEDTAVYYCSKDDWFEELWGQGTLVTVSS
VL: DIQMTQSPSSLSASVGDRVTITCRASQGIRNDLGWYQQKPGKAPKRLIYATSSLQSGVPSRFSGSGSGTEFTLTISSLQPEDFATYYCLHHNSFPWTFGQGTKVEIK
notes: as for B1
For the molecule B5, in [1], the “VEGF-E-mediated Survival % Inhibition (Average)” value came to 67%. Moreover, the “VEGF-E-mediated Survival % Inhibition (n = 1)” value in assay [1] is 66%. The “VEGF-E-mediated Survival % Inhibition (n = 2)” value in assay [1] is 68%. The ELISA reading was determined as 0.2 in assay [2]; 2.32 in assay [3]; 2.71 in [4]; 1.1 in [5]; 0.2 in [6]; 1.62 in assay [7]. In addition, the ELISA reading in assay [8] was 0.12; in assay [9], 0.25; in assay [10], 0.08; in assay [11] it was 0.08; in [12] it was 0.23; in assay [13] it was 0.55.

B6: 24C9 (antibody, V domains shown)
VH: EVQLVESGGGLVKPGGSLRLSCAASGFTFSTYSMNWVRQAPGKGLEWVSFISGRSSYIYYADSVKGRFTISRDNAKNSLYLQMNSLRAEDTAVYYCSKDDWFEELWGQGTLVTVSS
VL: DIQMTQSPSSLSASVGDRVTITCRASQGIRNDLGWYQQKPGKAPKRLIYATFSLQSGVPSRFSGSGSGTEFTLTISSLQPEDFATYYCLQHNRYPWTFGQGTKVEIK
notes: as for B1
As for B6, the “VEGF-E-mediated Survival % Inhibition (Average)” value in [1] came to 72%. Also, in assay [1], the “VEGF-E-mediated Survival % Inhibition (n = 1)” value is 72%. For the same molecule, in assay [1], the “VEGF-E-mediated Survival % Inhibition (n = 2)” value came to 72%. The ELISA reading in assay [2] came to 0.11; in assay [3] it was 2.48; in assay [4], 3.67; in [5], 1.45; in assay [6], 0.23; in [7], 2.14. For the same molecule, the ELISA reading in assay [8] worked out at 0.13; in assay [9] it was 0.2; in assay [10] it was 0.07; in [11] it was 0.09; in assay [12] it was 0.5; in assay [13] it was 0.54.

B7: 32G7 (antibody, V domains shown)
VH: EVQLVESGGGLVKPGGSLRLSCAASGFTISSYSMNWVRQAPGKGLEWVSFISSRSNYIYYADSVKGRFTISRDNAKNSLYLQMNSLRAEDTAVYYCSKDDWFEELWGQGTLVTVSS
VL: DIQMTQSPSSLSASVGDRVTITCRASQDIRNDLGWYQQKPGKAPKRLIYAASSLQSGVPSRFSGSGSGTEFTLTISSLQPEDFATYYCLQHNSFPWTFGQGTKVEIK
notes: as for B1
As for B7, in [1], the “VEGF-E-mediated Survival % Inhibition (Average)” value was 62%. The “VEGF-E-mediated Survival % Inhibition (n = 1)” value in assay [1] amounted to 69%. The “VEGF-E-mediated Survival % Inhibition (n = 2)” value in assay [1] is 54%. Besides, the ELISA reading in [2] was found to be 0.11; in assay [3] it was 1.27; in [4] it was 2.03; in assay [5], 0.55; in assay [6], 0.15; in [7], 0.96. Moreover, the ELISA reading is 0.11 in assay [8]; 0.24 in [9]; 0.07 in assay [10]; 0.08 in assay [11]; 0.19 in assay [12]; 0.38 in assay [13].
